Test [1] has as its target SecYEG in nanodiscs (titration with FtsY(NBD)) (E. coli) (UniProt P0AGA2). Briefly: other fluorescence titration.
In test [2] the target is nontranslating ribosomes (E. coli) (UniProt P0ADZ0). Kind of test: co-sedimentation.
The target in test [3] is SecY(S111C)EG labeled with MDCC at position 111 of SecY (E. coli) (UniProt P0AGA2). Briefly: FRET or BRET.

As to “FtsY(A26C) labeled with NBD at position 26 (from UniProt P10121 1-497) (receptor)”, the Kd in test [1] turned out to be 160 nM.

B1: SRP present in the ribosome and RNC preparations (complex)
chain: MFDNLTDRLSRTLRNISGRGRLTEDNVKDTLREVRMALLEADVALPVVREFINRVKEKAVGHEVNKSLTPGQEFVKIVRNELVAAMGEENQTLNLAAQPPAVVLMAGLQGAGKTTSVGKLGKFLREKHKKKVLVVSADVYRPAAIKQLETLAEQVGVDFFPSDVGQKPVDIVNAALKEAKLKFYDVLLVDTAGRLHVDEAMMDEIKQVHASINPVETLFVVDAMTGQDAANTAKAFNEALPLTGVVLTKVDGDARGGAALSIRHITGKPIKFLGVGEKTEALEPFHPDRIASRILGMGDVLSLIEDIESKVDRAQAEKLASKLKKGDGFDLNDFLEQLRQMKNMGGMASLMGKLPGMGQIPDNVKSQMDDKVLVRMEAIINSMTMKERAKPEIIKGSRKRRIAAGCGMQVQDVNRLLKQFDDMQRMMKKMKKGGMAKMMRSMKGMMPPGFPGR
B1 registered a percent of ribosomes/RNCs with SRP bound in test [2] of 25%.

B2: FtsY(F196C) labeled with BODIPY FL at position 196 (receptor)
chain: MAKEKKRGFFSWLGFGQKEQTPEKETEVQNEQPVVEEIVQAQEPVKASEQAVEEQPQAHTEAEAETFAADVVEVTEQVAESEKAQPEAEVVAQPEPVVEETPEPVAIEREELPLPEDVNAEAVSPEEWQAEAETVEIVEAAEEEAAKEEITDEELETALAAEAAEEAVMVVPPAEEEQPVEEIAQEQEKPTKEGFCARLKRSLLKTKENLGSGFISLFRGKKIDDDLFEELEEQLLIADVGVETTRKIITNLTEGASRKQLRDAEALYGLLKEEMGEILAKVDEPLNVEGKAPFVILMVGVNGVGKTTTIGKLARQFEQQGKSVMLAAGDTFRAAAVEQLQVWGQRNNIPVIAQHTGADSASVIFDAIQAAKARNIDVLIADTAGRLQNKSHLMEELKKIVRVMKKLDVEAPHEVMLTIDASTGQNAVSQAKLFHEAVGLTGITLTKLDGTAKGGVIFSVADQFGIPIRYIGVGERIEDLRPFKADDFIEALFARED
modifications: BODIPY FL (Bpy) on cysteine 196
Turning to B2, in test [3], the Kd was 180 nM. This lies in the sub-micromolar range.

Source of the values: publication PMC4602035.
